Data: patent publication US20160200782A1 (MOERAE MATRIX, published 2016)

Legend:
Experiment in all cases: cell-based or functional assay
[1] = molecular target: Ab1(M351T)(h) (human, UniProt P00519 27-1130, limits assumed)
[2] = molecular target: EGFR(T790M)(h) (human, UniProt P00533 696-1210, limits assumed)
[3] = molecular target: Lck(h) (human, UniProt P06239 1-509, limits assumed)
[4] = molecular target: CLK2(h) (human, UniProt P49760 1-499, limits assumed)
[5] = molecular target: CK1γ1(h) (human, UniProt Q9HCP0 1-422)
[6] = molecular target: TLK2(h) (human, UniProt Q86UE8 1-772, limits assumed)
[7] = molecular target: Tie2(R849W)(h) (human, UniProt Q02763 771-1124, limits assumed)
[8] = molecular target: cKit(V560G)(h) (human, UniProt P10721 544-976, limits assumed)
[9] = molecular target: GRK5(h) (human, UniProt P34947 1-590)
[10] = molecular target: MAPK1(h) (human, UniProt P28482 1-360, limits assumed)
[11] = molecular target: ACK1(h) (human, UniProt Q07912 110-476, limits assumed)
[12] = molecular target: JAK3(h) (human, UniProt P52333 781-1124, limits assumed)
[13] = molecular target: PKA(h) (human)

% activity [1] | % activity [2] | % activity [3] | % activity [4] | % activity [5] | % activity [6] | % activity [7] | % activity [8] | % activity [9] | % activity [10] | % activity [11] | % activity [12] | % activity [13] | Binder
90% | 100% | -2% | 103% |  |  |  |  |  |  |  |  |  | FAKLAARLYRKALARQLGVAA [MMI-0300]
 |  |  |  | 116% | 151% | 108% | 124% | 131% | 100% | 95% | 122% | 119% | KAFAKLAARLYRKALARQLGVAA [MMI-0400]
